From US20200370067

How the values were obtained:
[1] = tested on: SHS231 left TALEN (synthetic); assay: cell_activity; settings: as pair with right TALEN; 1/81 clones, 293T
[2] = tested on: SHS231 right TALEN (synthetic); assay: cell_activity; settings: as pair with left TALEN; 1/81 clones, 293T

Sequence | activity (% targeted integration) [1] | activity (% targeted integration) [2]
TTGGCTAGGGCTAAGGATTA (double strand) [SHS231 left TALEN half-site] | 1.23 | –
TGTATGCTTTCCTCTTGTTA (double strand) [SHS231 right TALEN half-site] | – | 1.23
